Tested on: L363 cells
Assay: JNG assay, co-culture with L363 cells
Format: cell-based
Details: co-culture with L363
Outline: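 Jurkat NFAT-GFP (JNG) cells stably transduced with SARs by lentivirus, with drug selection where the construct carried a resistance gene, then co-cultured with target cells at E:T ~1:2 for ~4–18 h. % GFP-positive cells measured by FACS against parental JNG; +/- to 5+ correspond to ~5–50% GFP-positive.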

Molecule | NFAT-GFP ASSAY: L363
22064 (protein) MALPVTALLLPLALLLHAARPQVQLVESGGGLVQPGGSLRLSCAASGFTFTNHAMSWVRQAPGKGLELVSSISGNGRTTYYADSVKGRFTISRDISKNTLDLQMNSLRAEDTAVYYCAKDGGETLVDSRGQGTLVTVSSLEGGGGSGGGGSGGGGSVEDLKNVFPPEVAVFEPSKAEIAHTQKATLVCLATGFYPDHVELSWWVNGKEVHSGVCTDPQPLKEQPALNDSRYCLSSRLRVSATFWQNPRNHFRCQVQFYGLSENDEWTQDRAKPVTQIVSAEAWGRADCGITSASYHQGVLSATILYEILLGKATLYAVLVSALVLMAMVKRKDSRGRAKRSGSGATNFSLLKQAGDVEENPGPTSMDWIWRILFLVGAATGAHSFEEVQLLESGGGLVQPGGSLRLSCAASGFTFSSYAMSWVRQAPGKGLEWVSSISGSGDYIYYADSVKGRFTISRDISKNTLYLQMNSLRAEDTAVYYCAKEGTGANSSLADYRGQGTLVTVSSTRIQNPDPAVYQLRDSKSSDKSVCLFTDFDSQTNVSQSKDSDVYITDKCVLDMRSMDFKSNSAVAWSNKSDFACANAFNNSIIPEDTFFPSPESSCDVKLVEKSFETDTNLNFQNLSVIGFRILLLKVAGFNLLMTLRLWSSRAKRSGSGVKQTLNFDLLKLAGDVESNPGPSRGHMTEYKPTVRLATRDDVPRAVRTLAAAFADYPATRHTVDPDRHIERVTELQELFLTRVGLDIGKVWVADDGAAVAVWTTPESVEAGAVFAEIGPRMAELSGSRLAAQQQMEGLLAPHRPKEPAWFLATVGVSPDHQGKGLGSAVVLPGVEAAERAGVPAFLETSAPRNLPFYERLGFTVTADVEVPEGPRTWCMTRKPGA | L363 (+/-) (refer to approximately 5%, 10%, 20%, 30%, 40% and 50% GFP positive cells)
22075 (protein) MALPVTALLLPLALLLHAARPQVQLVESGGGLVQPGGSLRLSCAASGFTFTNHAMSWVRQAPGKGLELVSSISGNGRTTYYADSVKGRFTISRDISKNTLDLQMNSLRAEDTAVYYCAKDGGETLVDSRGQGTLVTVSSLEGQPKANPTVTLFPPSSEELQANKATLVCLISDFYPGAVTVAWKADGSPVKAGVETTKPSKQSNNKYAASSYLSLTPEQWKSHRSYSCQVTHEGSTVEKTVAPTECSGRADCGFTSESYQQGVLSATILYEILLGKATLYAVLVSALVLMAMVKRKDSRGRAKRSGSGATNFSLLKQAGDVEENPGPTSMDWIWRILFLVGAATGAHSFEEVQLLESGGGLVQPGGSLRLSCAASGFTFSSYAMSWVRQAPGKGLEWVSSISGSGDYIYYADSVKGRFTISRDISKNTLYLQMNSLRAEDTAVYYCAKEGTGANSSLADYRGQGTLVTVSSTRIQNPDPAVYQLRDSKSSDKSVCLFTDFDSQTNVSQSKDSDVYITDKCVLDMRSMDFKSNSAVAWSNKSDFACANAFNNSIIPEDTFFPSPESSCDVKLVEKSFETDTNLNFQNLSVIGFRILLLKVAGFNLLMTLRLWSSRAKRSGSGVKQTLNFDLLKLAGDVESNPGPSRGHMTEYKPTVRLATRDDVPRAVRTLAAAFADYPATRHTVDPDRHIERVTELQELFLTRVGLDIGKVWVADDGAAVAVWTTPESVEAGAVFAEIGPRMAELSGSRLAAQQQMEGLLAPHRPKEPAWFLATVGVSPDHQGKGLGSAVVLPGVEAAERAGVPAFLETSAPRNLPFYERLGFTVTADVEVPEGPRTWCMTRKPGA | +/- (refer to approximately 5%, 10%, 20%, 30%, 40% and 50% GFP positive cells)

Reference: patent US20230212319A1, “NOVEL ANTIGEN BINDING DOMAINS AND SYNTHETIC ANTIGEN RECEPTORS INCORPORATING THE SAME” (University of Southern California, priority 2020, published 2023)
